In article PMC5173139, “Dual inhibition of ErbB1 and ErbB2 in cancer by recombinant human prolidase mutant hPEPD-G278D” (Oncotarget, 2016):

How the values were obtained:
ErbB2 (Homo sapiens) = ErbB2 (Homo sapiens) (UniProt P04626); settings: cited from earlier work
ErbB1 ECD (Homo sapiens) = ErbB1 ECD (Homo sapiens) (UniProt P00533); settings: cited from earlier work
[1] = target: human ErbB1 mutant lacking ECD subdomain 1 (aa #1-165) (human) (UniProt P00533); test: ELISA; as a1 but with lysates of CHO-K1 cells transiently transfected for 24 h with wild-type ErbB1 or a subdomain deletion mutant; equal amounts of ErbB1 protein by immunoblot densitometry
[2] = target: human ErbB1 mutant lacking ECD subdomain 3 (aa #311-480) (human) (UniProt P00533); test: as above
[3] = target: human ErbB1 mutant lacking ECD subdomain 4 (aa #481-620) (human) (UniProt P00533); test: as above
[4] = target: T1, human ErbB1, full length, stably expressed in CHO-K1 cells (CHO-K1/ErbB1) (human, UniProt P00533 25-1210); test: ELISA; wells coated with an antibody to the cytoplasmic tail of ErbB1; serially diluted His-tagged hPEPD or mutant plus CHO-K1/ErbB1 cell lysate (25 ug total protein), 37 C, 2 h; bound PEPD detected by biotin-conjugated anti-His antibody and streptavidin-HRP; CHO-K1 lysate as control; settings: one partner purified
T1 construct: human ErbB1 (EGF receptor), full length; source: CHO-K1, stably transfected (pCMV6-A-ERBB1-Puro, puromycin selection), in lysate

With prolidase (PEPD) (from UniProt P12955) as the molecule, how does the Kd (ErbB2 (Homo sapiens)) read?
Its Kd is 7.3 nM.

And the Kd (ErbB1 ECD (Homo sapiens))?
Its Kd is 5000 nM.

B1: hPEPD-G278D, enzymatically inactive mutant of recombinant human prolidase (enzyme)
chain: MAAATGPSFWLGNETLKVPLALFALNRQRLCERLRKNPAVQAGSIVVLQGGEETQRYCTDTGVLFRQESFFHWAFGVTEPGCYGVIDVDTGKSTLFVPRLPASHATWMGKIHSKEHFKEKYAVDDVQYVDEIASVLTSQKPSVLLTLRGVNTDSGSVCREASFDGISKFEVNNTILHPEIVECRVFKTDMELEVLRYTNKISSEAHREVMKAVKVGMKEYELESLFEHYCYSRGGMRHSSYTCICGSGENSAVLHYGHAGAPNDRTIQNGDMCLFDMDGEYYCFASDITCSFPANGKFTADQKAVYEAVLRSSRAVMGAMKPGVWWPDMHRLADRIHLEELAHMGILSGSVDAMVQAHLGAVFMPHGLGHFLGIDVHDVGGYPEGVERIDEPGLRSLRTARHLQPGMVLTVEPGIYFIDHLLDEALADPARASFLNREVLQRFRGFGGVRIEEDVVVTDSGIELLTCVPRTVEEIEACMAGCDKAFTPFSGPK
With B1 as the molecule, how does the fold reduction of binding affinity (Kd) against wild-type ErbB1 [1] read?
Its fold reduction of binding affinity (Kd) against wild-type ErbB1 is 19.2 fold.

What about the fold reduction of binding affinity (Kd) against wild-type ErbB1 [2] of the same molecule?
The fold reduction of binding affinity (Kd) against wild-type ErbB1 was 7.4 fold.

And the fold reduction of binding affinity (Kd) against wild-type ErbB1 [3]?
Its fold reduction of binding affinity (Kd) against wild-type ErbB1 is 1.4 fold.

B2: recombinant human prolidase (peptidase D), hPEPD (enzyme, UniProt P12955 1-493, looked up)
chain: MAAATGPSFWLGNETLKVPLALFALNRQRLCERLRKNPAVQAGSIVVLQGGEETQRYCTDTGVLFRQESFFHWAFGVTEPGCYGVIDVDTGKSTLFVPRLPASHATWMGKIHSKEHFKEKYAVDDVQYVDEIASVLTSQKPSVLLTLRGVNTDSGSVCREASFDGISKFEVNNTILHPEIVECRVFKTDMELEVLRYTNKISSEAHREVMKAVKVGMKEYELESLFEHYCYSRGGMRHSSYTCICGSGENSAVLHYGHAGAPNDRTIQNGDMCLFDMGGEYYCFASDITCSFPANGKFTADQKAVYEAVLRSSRAVMGAMKPGVWWPDMHRLADRIHLEELAHMGILSGSVDAMVQAHLGAVFMPHGLGHFLGIDVHDVGGYPEGVERIDEPGLRSLRTARHLQPGMVLTVEPGIYFIDHLLDEALADPARASFLNREVLQRFRGFGGVRIEEDVVVTDSGIELLTCVPRTVEEIEACMAGCDKAFTPFSGPK
notes: source: E. coli, as previously described [13, 17]; not shown: His tag, C-terminal, kept
With B2 as the molecule, how does the Kd [4] read?
Its Kd is 17.7 nM.
